Among the data in article PMC6460258 are Kd and stoichiometry N values, retold here.

In test [1] the target is GST-tagged Lcl (recombinant full length Lcl, 18 repeats) (Legionella pneumophila). The test can be described thus: SPR; Biacore X100; […] (100 nM) […]. For orientation: Surface plasmon resonance follows binding to a sensor surface in real time, without labels.
In test [2] the target is His-tagged full length Lcl (Legionella collagen-like protein) with 18 repeats (Legionella pneumophila serogroup 1, strain LU1536). Put plainly: SEC; […], PBS, 0.5 ml/min; […]. (In gel filtration, larger molecules generally elute earlier.)

The term Kd denotes a measure of binding affinity in units of concentration. In the case of “His-tagged Lcl lacking the C-terminal domain (Lcl[change]) (domain or fragment)”, the Kd in test [1] came to 123 nM.
As to “His-tagged Lcl lacking the collagenous repeat domain (Lcl[change]) (domain or fragment)”, the Kd in test [1] worked out at 1040 nM.
What is called stoichiometry N is a count of units in the complex or per binding partner. For the substance “His-tagged full length Lcl (Legionella collagen-like protein) with 18 repeats (natural protein)”, the Kd in test [1] turned out to be 28.7 nM. For the same substance, the stoichiometry N in test [2] turned out to be 3.
